Laboratory results from publication PMC10770396, “Dimerization of the 4Ig isoform of B7-H3 in tumor cells mediates enhanced proliferation and tumorigenic signaling” (Communications Biology, 2024).

B1: 4Ig-B7-H3-mEGFP, Q5ZPR3 29-534 (natural protein)
chain: LEVQVPEDPVVALVGTDATLCCSFSPEPGFSLAQLNLIWQLTDTKQLVHSFAEGQDQGSAYANRTALFPDLLAQGNASLRLQRVRVADEGSFTCFVSIRDFGSAAVSLQVAAPYSKPSMTLEPNKDLRPGDTVTITCSSYQGYPEAEVFWQDGQGVPLTGNVTTSQMANEQGLFDVHSILRVVLGANGTYSCLVRNPVLQQDAHSSVTITPQRSPTGAVEVQVPEDPVVALVGTDATLRCSFSPEPGFSLAQLNLIWQLTDTKQLVHSFTEGRDQGSAYANRTALFPDLLAQGNASLRLQRVRVADEGSFTCFVSIRDFGSAAVSLQVAAPYSKPSMTLEPNKDLRPGDTVTITCSSYRGYPEAEVFWQDGQGVPLTGNVTTSQMANEQGLFDVHSVLRVVLGANGTYSCLVRNPVLQQDAHGSVTITGQPMTFPPEALWVTVGLSVCLIALLVALAFVCWRKIKQSCEEENAGAEDQDGEGEGSKTALQPLKHSDSKEDDGQEIA
B2: human 4Ig-B7-H3 extracellular domain (amino acids: Gly27 – Thr461), recombinant (domain or fragment, UniProt Q5ZPR3 27-461, looked up)
chain: GALEVQVPEDPVVALVGTDATLCCSFSPEPGFSLAQLNLIWQLTDTKQLVHSFAEGQDQGSAYANRTALFPDLLAQGNASLRLQRVRVADEGSFTCFVSIRDFGSAAVSLQVAAPYSKPSMTLEPNKDLRPGDTVTITCSSYQGYPEAEVFWQDGQGVPLTGNVTTSQMANEQGLFDVHSILRVVLGANGTYSCLVRNPVLQQDAHSSVTITPQRSPTGAVEVQVPEDPVVALVGTDATLRCSFSPEPGFSLAQLNLIWQLTDTKQLVHSFTEGRDQGSAYANRTALFPDLLAQGNASLRLQRVRVADEGSFTCFVSIRDFGSAAVSLQVAAPYSKPSMTLEPNKDLRPGDTVTITCSSYRGYPEAEVFWQDGQGVPLTGNVTTSQMANEQGLFDVHSVLRVVLGANGTYSCLVRNPVLQQDAHGSVTITGQPMT
notes: B7-H3 (CD276), human, 4Ig isoform, extracellular domain, residues Gly27 – Thr461; commercial proteins of this kind often carry a C-terminal His tag (surmise); also called CD276; source: bought: R&D Systems (functionally active recombinant protein)
B3: murine 2Ig-B7-H3 extracellular domain (amino acids: Val29 – Phe244), recombinant (domain or fragment, UniProt Q8VE98 29-244, looked up)
chain: VEVQVSEDPVVALVDTDATLRCSFSPEPGFSLAQLNLIWQLTDTKQLVHSFTEGRDQGSAYSNRTALFPDLLVQGNASLRLQRVRVTDEGSYTCFVSIQDFDSAAVSLQVAAPYSKPSMTLEPNKDLRPGNMVTITCSSYQGYPEAEVFWKDGQGVPLTGNVTTSQMANERGLFDVHSVLRVVLGANGTYSCLVRNPVLQQDAHGSVTITGQPLTF
notes: B7-H3 (CD276), murine, 2Ig isoform, extracellular domain, residues Val29 – Phe244; also called murine B7-H3; source: bought: R&D Systems (functionally active recombinant protein)

Experiments:
[1] = molecular target: T1, 4Ig-B7-H3-mEGFP (human), Q5ZPR3; assay: FRET or BRET; homo-FRET fluorescence lifetime imaging (FRET-FLIM, TCSPC) of mEGFP fusions in fixed, transiently transfected HeLa CD276-/- KO cells; bi-exponential fit; settings: remark: other sources report otherwise
T1 chain: B1 chain

[2] = molecular target: the molecule itself; assay: SEC; analytical SEC, Superdex 200 10/300, PBS + 0.1 M NaCl + 0.05% NaN3, flow 0.5 ml/min, protein at 100 μg/mL; apparent molecular weight from a calibration curve; monomer to dimer

| Binder | mEGFP fluorescence lifetime, bi-exponential fit, first fraction [1] | mEGFP fluorescence lifetime, bi-exponential fit, second fraction [1] | stoichiometry N [2] |
| --- | --- | --- | --- |
| B1 | 2.57 ns | 1.33 ns |  |
| B2 |  |  | 2 |
| B3 |  |  | 2 |
